B1: … (SEQ ID No 168) (peptide)
peptide: KYQDILETI
B2: … (SEQ ID No 277) (peptide)
peptide: VYQGHTALL
B3: … (SEQ ID No 163) (peptide)
peptide: DYLKGLASF
B4: … (SEQ ID No 165) (peptide)
peptide: DYTTWTALL
B5: … (SEQ ID No 287) (peptide)
peptide: LYITEPKTI
B6: … (SEQ ID No 278) (peptide)
peptide: RYISDQLFTNF
B7: … (SEQ ID No 164) (peptide)
peptide: KFSSFSLFF
B8: … (SEQ ID No 199) (peptide)
peptide: RYAEEVGIF
B9: … (SEQ ID No 219) (peptide)
peptide: EYPLVINTL
B10: … (SEQ ID No 195) (peptide)
peptide: TYSVSFPMF
B11: … (SEQ ID No 267) (peptide)
peptide: KYMVYPQTF
B12: … (SEQ ID No 162) (peptide)
peptide: VFTRVSSFL
B13: … (SEQ ID No 280) (peptide)
peptide: RYPDNLKHLYL
B14: … (SEQ ID No 209) (peptide)
peptide: TYKDEGNDYF
B15: … (SEQ ID No 207) (peptide)
peptide: AYVVFVSTL
B16: … (SEQ ID No 268) (peptide)
peptide: QYLGQIQHI
B17: … (SEQ ID No 269) (peptide)
peptide: YFIDSTNLKTHF
B18: … (SEQ ID No 196) (peptide)
peptide: LYIDRPLPYL
B19: … (SEQ ID No 281) (peptide)
peptide: PYRLIFEKF
B20: … (SEQ ID No 171) (peptide)
peptide: LFIPSSKLLFL
B21: … (SEQ ID No 161) (peptide)
peptide: IYLVSIPEL
B22: … (SEQ ID No 204) (peptide)
peptide: TYELRYFQI
B23: … (SEQ ID No 273) (peptide)
peptide: TYIKPISKL
B24: … (SEQ ID No 288) (peptide)
peptide: VYVSDIQEL
B25: … (SEQ ID No 158) (peptide)
peptide: HYSQELSLLYL
B26: … (SEQ ID No 201) (peptide)
peptide: IYATEAHVF
B27: … (SEQ ID No 284) (peptide)
peptide: RYLNKAFHI
B28: … (SEQ ID No 272) (peptide)
peptide: QYLQDAYSF
B29: … (SEQ ID No 224) (peptide)
peptide: QYLENLEKL
B30: … (SEQ ID No 271) (peptide)
peptide: LYHDIFSRL
B31: … (SEQ ID No 170) (peptide)
peptide: VYEDQVGKF
B32: … (SEQ ID No 159) (peptide)
peptide: LYNKGFIYL
B33: … (SEQ ID No 283) (peptide)
peptide: TYGDAGLTYTF
B34: … (SEQ ID No 218) (peptide)
peptide: YYKSTSSAF
B35: … (SEQ ID No 286) (peptide)
peptide: RYPDNLKHL
B36: … (SEQ ID No 197) (peptide)
peptide: EYSLFPGQVVI
B37: … (SEQ ID No 276) (peptide)
peptide: VYGFQWRHF
B38: … (SEQ ID No 285) (peptide)
peptide: HYPPVQVLF
B39: … (SEQ ID No 270) (peptide)
peptide: NYYEVHKELF
B40: … (SEQ ID No 160) (peptide)
peptide: VYTLDIPVL
B41: … (SEQ ID No 226) (peptide)
peptide: VYRDETGELF
B42: … (SEQ ID No 227) (peptide)
peptide: IFLDYEAGTLSF
B43: … (SEQ ID No 173) (peptide)
peptide: IYSWILDHF
B44: … (SEQ ID No 174) (peptide)
peptide: VYVGGGQIIHL
B45: … (SEQ ID No 275) (peptide)
peptide: EYINQGDLHEF
B46: … (SEQ ID No 169) (peptide)
peptide: AYTLIAPNI
B47: … (SEQ ID No 200) (peptide)
peptide: YYGPSLFLL
B48: … (SEQ ID No 167) (peptide)
peptide: NYINRILKL
B49: … (SEQ ID No 175) (peptide)
peptide: YYEVHKELF
B50: … (SEQ ID No 228) (peptide)
peptide: KYTSWYVAL
B51: … (SEQ ID No 223) (peptide)
peptide: KYIPYKYVI
B52: … (SEQ ID No 202) (peptide)
peptide: VYWDSAGAAHF
B53: … (SEQ ID No 274) (peptide)
peptide: AYLHSHALI
B54: … (SEQ ID No 176) (peptide)
peptide: EYNQWFTKL
B55: … (SEQ ID No 282) (peptide)
peptide: KFVDSTFYL
B56: … (SEQ ID No 166) (peptide)
peptide: YYVESGKLF
B57: … (SEQ ID No 221) (peptide)
peptide: RYSTGLAGNLL
B58: … (SEQ ID No 225) (peptide)
peptide: YYVYIMNHL
B59: … (SEQ ID No 222) (peptide)
peptide: TFSVSSHLF
B60: … (SEQ ID No 289) (peptide)
peptide: KYPVEWAKF
B61: … (SEQ ID No 279) (peptide)
peptide: TYIESASEL

target: HLA-A*24 (human); assay: UV-ligand exchange, b2m ELISA

Row | peptide exchange yield [%] | Binder
1 | > 75 | B1
2 | > 75 | B2
3 | > 75 | B3
4 | > 75 | B4
5 | 50 to 75 | B5
6 | > 75 | B6
7 | 50 to 75 | B7
8 | 50 to 75 | B8
9 | 50 to 75 | B9
10 | > 75 | B10
11 | > 75 | B11
12 | 50 to 75 | B12
13 | > 75 | B13
14 | 50 to 75 | B14
15 | 20 to 49 | B15
16 | 50 to 75 | B16
17 | 50 to 75 | B17
18 | 50 to 75 | B18
19 | 20 to 49 | B19
20 | 50 to 75 | B20
21 | > 75 | B21

Row | peptide exchange yield [%] | Binder
22 | > 75 | B22
23 | 50 to 75 | B23
24 | 50 to 75 | B24
25 | > 75 | B25
26 | 50 to 75 | B26
27 | 50 to 75 | B27
28 | > 75 | B28
29 | 50 to 75 | B29
30 | > 75 | B30
31 | 20 to 49 | B31
32 | > 75 | B32
33 | 50 to 75 | B33
34 | 50 to 75 | B34
35 | 20 to 49 | B35
36 | 50 to 75 | B36
37 | > 75 | B37
38 | 50 to 75 | B38
39 | 50 to 75 | B39
40 | > 75 | B40
41 | 50 to 75 | B41
42 | > 75 | B42

Row | peptide exchange yield [%] | Binder
43 | > 75 | B43
44 | 50 to 75 | B44
45 | 50 to 75 | B45
46 | 50 to 75 | B46
47 | 50 to 75 | B47
48 | > 75 | B48
49 | > 75 | B49
50 | > 75 | B50
51 | 50 to 75 | B51
52 | > 75 | B52
53 | > 75 | B53
54 | 50 to 75 | B54
55 | > 75 | B55
56 | > 75 | B56
57 | 50 to 75 | B57
58 | 50 to 75 | B58
59 | 50 to 75 | B59
60 | > 75 | B60
61 | 50 to 75 | B61

Source: patent publication US20170189513A1
